From patent publication US20150239981A1

Assays:
FcγRI (human) [1] = target: FcγRI (human) (UniProt P12314); experiment: SPR Biacore T100, FcγRI captured by pentaHis antibody, antibody as analyte 0-100 nM
Target sequence in this assay (P12314 16-288 limits assumed): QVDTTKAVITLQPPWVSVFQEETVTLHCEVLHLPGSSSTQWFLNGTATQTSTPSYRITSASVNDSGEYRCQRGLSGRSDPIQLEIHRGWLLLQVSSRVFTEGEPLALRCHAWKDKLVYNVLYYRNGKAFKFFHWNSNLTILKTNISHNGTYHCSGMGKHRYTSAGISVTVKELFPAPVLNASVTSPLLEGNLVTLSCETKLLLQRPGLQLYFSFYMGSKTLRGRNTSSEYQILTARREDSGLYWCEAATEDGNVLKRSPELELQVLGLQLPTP

FcγRI (human) [2] = target: FcγRI (human) (UniProt P12314); experiment: SPR
Target sequence in this assay (P12314 16-288): as the sequence (P12314 16-288 limits assumed) above

FcγRIIA-R131 (human) = FcγRIIA-R131 (human) (UniProt P12318); experiment: SPR Biacore T100, antibody immobilised, receptor as analyte 0-12800 nM, steady state fit
FcγRIIIA-V158 (human) = FcγRIIIA-V158 (human) (UniProt P08637); experiment: as above
Chain of FcγRIIIA-V158 (human) (P08637 17-208 F176V limits assumed): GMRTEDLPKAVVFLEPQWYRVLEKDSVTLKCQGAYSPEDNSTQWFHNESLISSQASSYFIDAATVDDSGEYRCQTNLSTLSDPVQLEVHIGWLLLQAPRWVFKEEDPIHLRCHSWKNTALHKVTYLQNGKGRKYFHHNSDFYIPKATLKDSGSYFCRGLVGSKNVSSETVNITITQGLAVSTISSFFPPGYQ

Chain of FcγRIIA-R131 (human) (P12318 36-218 H167R limits assumed): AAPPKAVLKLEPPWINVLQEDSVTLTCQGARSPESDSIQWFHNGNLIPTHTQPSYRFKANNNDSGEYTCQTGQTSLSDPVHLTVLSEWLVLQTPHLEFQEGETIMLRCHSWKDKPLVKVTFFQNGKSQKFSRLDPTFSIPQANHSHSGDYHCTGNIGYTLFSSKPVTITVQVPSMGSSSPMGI
Chain of IgG4 SPLE (antibody not named, Tables 2A and 2B) (constant): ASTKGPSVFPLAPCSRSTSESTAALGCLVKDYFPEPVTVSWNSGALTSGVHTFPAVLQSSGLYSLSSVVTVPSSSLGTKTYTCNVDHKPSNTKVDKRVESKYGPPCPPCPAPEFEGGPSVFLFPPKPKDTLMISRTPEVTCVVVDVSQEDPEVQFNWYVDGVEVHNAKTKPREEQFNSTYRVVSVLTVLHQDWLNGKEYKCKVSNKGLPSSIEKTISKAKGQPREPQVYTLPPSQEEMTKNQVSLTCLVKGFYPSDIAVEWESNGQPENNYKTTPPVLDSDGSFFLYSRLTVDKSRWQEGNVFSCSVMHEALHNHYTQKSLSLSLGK

Substance	Kd (FcγRI (human) [1])	Kd (FcγRI (human) [2])	Kd (FcγRIIA-R131 (human))	also measured
CD20 antibody GA101 IgG1 P329G	5.7 nM	–	–	–
CD20 antibody GA101 IgG1 wildtype	4.6 nM	–	–	–
GA P329G	–	12 nM	–	–
IgG4 SPLE (antibody not named, Tables 2A and 2B)	–	–	10000 nM	–
IgG4 Wt	–	14 nM	–	–
WT IgG1 (antibody not named, Tables 2A and 2B)	5 nM	–	2000 nM	Kd (FcγRIIIA-V158 (human)): 700 nM
